Target: TTP TZF (RBD) (Homo sapiens, UniProt P26651 102-170)
Test: NMR

Chain of TTP TZF (RBD) (P26651 102-170): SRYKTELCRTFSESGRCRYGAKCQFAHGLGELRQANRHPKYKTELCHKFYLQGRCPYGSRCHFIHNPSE

UUUUAUUUAUUUU (ssRNA) [ARE13 (NMR)]
binding result: binds
